In the RNAGym collection of RNA variant scans (doi:10.1073/pnas.2313332121):
This sample holds only a part of the variants without activity.

B1: TPR 5TU (parent)
chain: GGAUCUUCUCGAUCUAACAAAAAAGACAAAUCUGCCACAAAGCUUGAGAGCAUCUUCGGAUGCAGAGGCGGCAGCCUUCGGUGGCGCGAUAGCGCCAACGUUCUCAACUAUGACACGCAAAACGCGUGCUCCGUUGAAUGGAGUUUAUCAUG

Variants of: B1
Test: polymerase ribozyme fitness, log enrichment relative to wild type (log ratio); higher = more active; in vitro selection for triplet polymerase activity
How it was run: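 A single round of triplicate in vitro selection, including frozen incubation at −7 °C, was applied to PCR-built, transcribed mutant libraries of each subunit of a heterodimeric triplet polymerase ribozyme. Illumina sequencing of input and output libraries retained genotypes with ≥10 input reads and ≥1 read per output. Fitness is the base-2 logarithm of genotype enrichment divided by wild-type enrichment, from inverse-variance-weighted replicate averages.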

Variant	polymerase ribozyme fitness (log ratio)
C93G C105U A137G	-4.06
A17C C54U A73U G94U A106G	-2.62
C14A G59U G94U C125G U134A U151G	≤ -4.2
C14G A47C A60U G65A	≤ -4.2
C85A C116U	-1.08
C87A G126U	≤ -4.2
U56A C69A C79U C93G U151A	≤ -4.2
A41U U55A A66G C93U A110G G140A	≤ -4.2
A12U A21G C95U C99A G126A C132U	-3.58
U56A U146A	-0.732
A21C U31A A49C U61A C93U G133C	≤ -4.2
C85G U151C	-4.2
C99U G140C	-3.43
A47G A49G G71A C87U A97U A106G A107C U111G U134C	≤ -4.2
G88A G94U U146C	-4.14
A12C U102C A138C	≤ -4.2
G58U C75G G81A G92U A142G U144A	≤ -4.2
U53A U78A C85U U102C	≤ -4.2
A73U C76U	-1.32
C87U U104A	-0.828
A29G U53A A110G A120U C123G	≤ -4.2
A28U G58A G88C G133A A138G G143U	≤ -4.2
A60G C99G U102A U144G	≤ -4.2
U7A C72G G80C C96U U104C A122G U146A	≤ -4.2

Variant	polymerase ribozyme fitness (log ratio)
G71A G140U U148C	≤ -4.2
G50A G65C C76G G92C G100A C125G	≤ -4.2
A47G A73U	-1.81
U56A G58C G59C C76G	≤ -4.2
A16G C38A A147C	-2.97
A47G G50C U53A A97U G124C	≤ -4.2
C63A U144C U145A	-2.97
A29C A52C C76U C96A U135G A147C	-4.08
C27U U53A	-2.76
G70A G81U	-3.25
G46C G80C A97C U144G	≤ -4.2
A47C C99U A122U G141A	-3.39
G83A G94A	-1.17
C27A C79U	≤ -4.2
A52G C85A A89G	-3.57
C93G A113U	-4.11
A22U G81A C125A	-0.142
U7G U56A G59C U78C	-2.83
A113C	-2.35
A22C G86A	-1.57
C38A U55A C76A	-1.15
A30G C149G	≤ -4.2
A98G A119U C125A U151G	≤ -4.2
A19G C75U C93A	-3.68

Variant	polymerase ribozyme fitness (log ratio)
U4A C27U C38U C51U A106G U109A	-3.72
C75U G84A U135A	-0.996
G25A A49G C95U	-2.94
G62C C85G	-3.23
A24C G48C C118G	≤ -4.2
A17C C18A U33A G80C C87A C108A G152C	≤ -4.2
C5U G143C	-1.95
C38U G81U C108A U139G	≤ -4.2
G86A A89G	-3.55
A66C C96A	≤ -4.2
A24C U31C U33G C76G C85U C125G	≤ -4.2
A28C A49U U55A U61A C76A A142C U146A	≤ -4.2
A22U C85G	-1.73
C85G C116U U144G	-0.537
U6G G11A A19C A21C A24G C36G U56A U82A A142C	≤ -4.2
A41C C93G C105U	-2.84
C85G C99U	-3.51
A16C A21C G50A C85U C125G	-2.99
A28U G59C C93U A138G	≤ -4.2
U7A A17U A24G U56A C93U U134A	≤ -4.2
A23G A49C G65C G80U G86U C99A	≤ -4.2
G25U A49U G50C U61A C95U	-3.07
A3U C5U C35G A37G G86U A89G U104C C125G C131G	≤ -4.2
U44A U82G	≤ -4.2

Variant	polymerase ribozyme fitness (log ratio)
A40C G42U C51G G67A C76A G86C A89U U127G	≤ -4.2
A19C U56A G65A C87U A97U	-1.81
G86U A121U	-0.702
G58U G84U A113G U139G	-2.95
A40G G71C G74U C93U A98G	≤ -4.2
U7G C14G U55G G58U G80C A107G C118U G140C	≤ -4.2
G83U C95U C116U	-2.67
C18G G84A	-1.41
C36U C69A A91U G94U C118U A121U	≤ -4.2
C27U U55G U61A C87G	≤ -4.2
A41C U151G	-3.63
G42U A98G U139C	≤ -4.2
A28C A40G G59U C87G A110G G143U G152C	≤ -4.2
A20U U53G C72G C95G C108U C118A	≤ -4.2
C85A G86U A110C C131A	≤ -4.2
A73U G81A A122U	-0.858
G70A	-2.75
A30C G71U A98G C103G	≤ -4.2
C51U U55G A98U A115G	-3.09
C8U C85U	-3.19
G59A C93A G141C	-4.03
C18U A41G G46A U56G C85A U135G U144C	≤ -4.2
U13C A22C U53A C116A	0.349
C54U G59A A106G	0.342

Variant	polymerase ribozyme fitness (log ratio)
C75U G83A A98C U134A U135A	-3.58
C35G C54G C79U U127A	≤ -4.2
A41G G50C	-1.47
C76A A91G C114U	-3.98
C36U C114U C131A	≤ -4.2
A12U A21C G80C G81A C93G G140U	≤ -4.2
A37C G58A	0.575
A24G U56A A121C G133C	≤ -4.2
U15C G42U G50U C93G C132A G140A U148C A150U	≤ -4.2
C93U G136U	-3.31
C8U U31G A40G G42U A52C C79G G84A C103A G133A U148G	≤ -4.2
A39C A66C G86U	≤ -4.2
U15A U55A U56A C69U C79U G86A A91U A106C A121G C125U A142C	≤ -4.2
A16U C87U A89U G140U G143A	≤ -4.2
C54U G68A A97G G124A U144C	-3.84
U82A C93U A110G	-4.09
A30U A39C A49C U104C C125G	≤ -4.2
C35A A40U A49G C87A G112C	≤ -4.2
C32G C72U	-4.2
A30G A47U U53A C76G C96U C118A	≤ -4.2
C5A A30C U82G U102C C131U	≤ -4.2
C76A A113C G141C U151A	≤ -4.2
A3U C5A C35U C87A	≤ -4.2
U33C G59C A64G C96G U130C	≤ -4.2

Variant	polymerase ribozyme fitness (log ratio)
A47G C51U C75U C96A C103U A138G A147C	≤ -4.2
A47C G50A G83A	-2.44
A17G C27A A29U U55A A64G C79A C93U A98G G100U G136A	≤ -4.2
C93U A119U U127G	-2.59
C95U C149G	-3.59
U33C A91U	-3.67
C57G G59A	-0.436
G67C G88U C149A	≤ -4.2
A21G C36G U53C	-3.97
C63A U102C	-0.926
A52G C131A	-1.46
A110C G140A	≤ -4.2
C93A C125G	-2.62
U13A C18U C51U G86A	-2.27
U82G G92C A113U	-3
G81A C118G	-1.67
A24C U44A G50U U55A	≤ -4.2
A30U G86A C96U A107U A142U C149G	≤ -4.2
A16G A91G C118U A150U	-3.08
C14G A23U A41U U78C G80C G81U C96U A110U G143U	≤ -4.2
A3U U9A A23C C27G G81A C85G C132A	≤ -4.2
A40C A41C C43U U55G C72U C96U A120U G124C	≤ -4.2
C8G U31A A49C U53A G84A A119U A121C A137U	≤ -4.2
A20G C85A U104C C105G	≤ -4.2

Variant	polymerase ribozyme fitness (log ratio)
C51A C99U	-1.63
A24U A52C U56A A73G C93U	-3.52
A49C A52U C132G	≤ -4.2
G59C U148A	-2.88
A41G C57U A89U	0.785
C35U U53A U135A G143C	-4.16
C14A U55G C63G C93U C118U	≤ -4.2
A24G A26U A39U U53A C57U G59A G68U G86A C99A A106U	-4.18
C10U G84A G126U	-4.02
C69A U102C	≤ -4.2
A41C A49C G92A A106C	≤ -4.2
A23C U55A	-3.85
U61A A66C G80A U82G	≤ -4.2
A17G A23U C79G	≤ -4.2
A39G G81A C96G	-3.28
A17G A40G G50C C85A	≤ -4.2
A16C A21C A49C C54U C96U	-4.18
U61C G81A	-2.36
C27G C85U A91U U109A C118A U127C	≤ -4.2
G62A G65A A66C U77C U135C U145G	≤ -4.2
A41U G46A G59A G86C	≤ -4.2
U6G A47G U53G U55A C76G C85G C103G G128U C129A U145G	≤ -4.2
U4C A52G G59U U145G	-1.5
